This is an account of results in article PMC5064212, “HigB of Pseudomonas aeruginosa Enhances Killing of Phagocytes by Up-Regulating the Type III Secretion System in Ciprofloxacin Induced Persister Cells”.

In the series the target is HigA-His (Pseudomonas aeruginosa PA14, UniProt A0A0H2ZHN2 1-101). The series can be described thus: EMSA; 0, 4 or 20 nM HigA, 300 ng DNA, 5 mM Ca2+. The note with it: protein: recombinant; tags: His (6xHis with Gly-Gly linker at C-terminus per higA cloning primer S4); chain copies: 2; label: none (ethidium bromide stain); blunt. A general note: In EMSA bound probe runs differently from free probe, usually more slowly.

B1: 38-bp higB-higA promoter fragment (dsDNA)
DNA 1: CTGTAGTGAAGTTAACGCTTAACGTTAAGGGTTAATGA
DNA 2: TCATTAACCCTTAACGTTAAGCGTTAACTTCACTACAG
For the molecule B1, the binding result is “binds”.

B2: 38-bp fragment with scrambled palindrome (EMSA-(M)) (dsDNA)
DNA 1: CTGTAGTGAAGTCTAGACTTAAGCATATGGGTTAATGA
DNA 2: TCATTAACCCATATGCTTAAGTCTAGACTTCACTACAG
As to B2, the binding result is listed as “no binding”.
